Key:
[1] = target: mVDAC1 labelled with Alexa Fluor 532 C5-maleimide (UniProt Q60932); experiment: MST
[2] = target: mVDAC1 labelled with Alexa Fluor 532 C5-maleimide (UniProt Q60932 14-296, Alexa Fluor 532 C5-maleimide label); experiment: MST
Sequence of mVDAC1 labelled with Alexa Fluor 532 C5-maleimide (UniProt Q60932 14-296, Alexa Fluor 532 C5-maleimide label) (Q60932 14-296): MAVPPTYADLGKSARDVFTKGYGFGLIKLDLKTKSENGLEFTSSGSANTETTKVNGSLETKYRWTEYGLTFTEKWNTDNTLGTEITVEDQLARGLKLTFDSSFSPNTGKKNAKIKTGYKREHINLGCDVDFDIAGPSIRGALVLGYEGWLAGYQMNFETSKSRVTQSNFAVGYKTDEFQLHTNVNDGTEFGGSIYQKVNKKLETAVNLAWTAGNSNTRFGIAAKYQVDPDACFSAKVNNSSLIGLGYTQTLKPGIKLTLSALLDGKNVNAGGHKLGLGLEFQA

Sequence of mVDAC1 labelled with Alexa Fluor 532 C5-maleimide (UniProt Q60932) (Q60932 14-296): as above

| Kd [1] [µM] | Kd [2] [µM] | Molecule |
| --- | --- | --- |
| 37.1 |  | caspase 8-cleaved recombinant BID (His-rtBID) (domain or fragment) |
|  | 1420 | recombinant full length His6-BID (natural protein, UniProt P70444 1-195, looked up) MDSEVSNGSGLGAEHITDLLVFGFLQSSGCTRQELEVLGRELPVQAYWEADLEDELQTDGSQASRSFNQGRIEPDSESQEEIIHNIARHLAQIGDEMDHNIQPTLVRQLAAQFMNGSLSEEDKRNCLAKALDEVKTAFPRDMENDKAMLIMTMLLAKKVASHAPSLLRDVFHTTVNFINQNLFSYVRNLVRNEMD |
